Data set [1] has as its target T1, N4posAbl (Abl kinase domain with N-terminal KRKKSGG tag) (Homo sapiens, UniProt P00519).
T1 sequence (P00519 229-512): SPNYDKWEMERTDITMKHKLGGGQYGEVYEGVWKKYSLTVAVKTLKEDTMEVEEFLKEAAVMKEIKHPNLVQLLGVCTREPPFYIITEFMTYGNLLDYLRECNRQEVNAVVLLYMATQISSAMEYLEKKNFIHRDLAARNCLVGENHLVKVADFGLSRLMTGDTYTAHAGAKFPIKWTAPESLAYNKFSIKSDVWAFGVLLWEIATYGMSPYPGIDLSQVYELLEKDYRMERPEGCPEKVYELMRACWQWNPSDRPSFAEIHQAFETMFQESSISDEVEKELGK
Put plainly: ClyA-AS nanopore tweezers single-channel current recording: ligand binding to N4posAbl.

Data set [2] has as its target T2, N4posG321V (Abl kinase domain hinge mutant) (Homo sapiens, UniProt P00519, G321V).
T2 construct: His10-TEV (N, cleaved yes); made in house; host or cells: E. coli BL21(DE3)pLysS, co-expressed with YopH phosphatase
T2 sequence (P00519 229-512 G321V): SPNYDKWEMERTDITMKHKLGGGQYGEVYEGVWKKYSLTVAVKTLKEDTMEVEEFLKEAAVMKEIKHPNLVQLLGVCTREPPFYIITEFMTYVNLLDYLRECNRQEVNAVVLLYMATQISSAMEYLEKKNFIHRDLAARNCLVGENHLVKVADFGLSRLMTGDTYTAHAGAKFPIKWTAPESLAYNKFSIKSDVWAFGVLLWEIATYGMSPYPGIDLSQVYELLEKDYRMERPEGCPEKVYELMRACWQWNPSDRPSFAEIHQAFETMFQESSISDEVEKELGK
Description: ClyA-AS nanopore tweezers single-channel current recording: ligand binding to N4posG321V.

In a further data set the target is Abl kinase. To be noted: read-out: reported KD of ATP; cited from earlier work.
Data set [3] addresses T3, kinase substrate peptide Abltide (Homo sapiens, UniProt P00519).
T3 sequence (P00519 229-512): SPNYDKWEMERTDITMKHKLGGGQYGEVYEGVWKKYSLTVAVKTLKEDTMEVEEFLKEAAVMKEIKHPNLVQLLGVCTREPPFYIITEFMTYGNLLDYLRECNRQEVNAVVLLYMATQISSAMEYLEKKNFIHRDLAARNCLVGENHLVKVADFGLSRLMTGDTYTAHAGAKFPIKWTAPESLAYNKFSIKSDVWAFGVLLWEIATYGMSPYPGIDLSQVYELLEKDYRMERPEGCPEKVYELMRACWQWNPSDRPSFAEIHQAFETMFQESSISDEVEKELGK
Put plainly: Enzyme-coupled Abl kinase assay (NADH consumption), Michaelis-Menten kinetics. The data set is classed as biochemical. As to the method:
(§1) Absorbance at 340 nm was monitored with a microtiter plate spectrophotometer (BioTek Synergy 2) for 30 min. The background kinase activity was determined in the reaction mix without the substrate peptide and subtracted from the experiments with the substrate peptide. To obtain the enzyme kinetics, initial phosphorylation rates at different substrate peptide concentrations (50~800 µM) were measured. Plots of the initial rate as a function of peptide substrate concentration were fit by nonlinear regression to obtain the Michaelis-Menten kinetic parameters.

Data set [4] concerns kinase substrate peptide Abltide. The data set is described as above. It counts as biochemical. To be noted: for Vmax / kcat: Abltide 50~800 µM, […] ATP, 30 nM kinase, 30 °C; for catalytic activity: Michaelis-Menten kinetic analysis. As to the method: as §1
Data set [5] is described as follows: Conformational state analysis of apo Abl kinases in ClyA-AS nanopore (S1/S2 and S1 sub-state dwell times, populations, rate constants, free energy). Also noted: species or system human.
Data set [6] addresses T4, N4posAbl: wildtype Abl kinase domain (residues 229-512) with a positively charged peptide tail (N4pos tag, … (human, UniProt P00519 229-512)).
T4 sequence (looked up): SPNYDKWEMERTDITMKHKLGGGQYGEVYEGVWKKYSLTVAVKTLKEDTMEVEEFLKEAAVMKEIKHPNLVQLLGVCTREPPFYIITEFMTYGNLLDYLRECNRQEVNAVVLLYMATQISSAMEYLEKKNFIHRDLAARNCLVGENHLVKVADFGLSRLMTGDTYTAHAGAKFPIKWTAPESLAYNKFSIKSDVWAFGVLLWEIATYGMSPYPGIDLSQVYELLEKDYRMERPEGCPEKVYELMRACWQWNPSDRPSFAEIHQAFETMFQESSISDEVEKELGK
Description: ClyA nanopore tweezers (single-channel current recording); single Abl kinase molecule trapped in a ClyA-AS nanopore in a DPhPC bilayer; Abltide titrated with 10 mM MgCl2; occupancy of the bound state against concentration fitted with a single site binding model; -80 mV, 150 mM NaCl, 100 mM Tris-HCl, pH 7.5, 22 °C, ~100 nM kinase in cis. To be noted: both partners purified.

In data set [7] the target is T5, N4posG321V: Abl kinase domain (residues 229-512) hinge mutant G321V with the N4pos tag (KRKKSGG) at its … (human, UniProt P00519 229-512, G321V).
T5 construct: also called Abl G321V
T5 sequence (looked up): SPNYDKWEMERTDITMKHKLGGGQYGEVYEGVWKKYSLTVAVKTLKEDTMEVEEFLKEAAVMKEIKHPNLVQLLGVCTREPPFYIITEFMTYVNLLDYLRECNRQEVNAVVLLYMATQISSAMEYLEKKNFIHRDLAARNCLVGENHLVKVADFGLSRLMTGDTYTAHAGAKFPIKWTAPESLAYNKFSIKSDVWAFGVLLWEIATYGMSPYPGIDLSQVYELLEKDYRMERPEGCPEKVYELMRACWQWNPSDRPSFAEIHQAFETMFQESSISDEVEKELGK
The data set is described as above. To be noted: both partners purified.

Results on six molecules are retold here after PMC9209526 (Nature Communications, 2022).

For `[Cl-].[Cl-].[Mg+2]` [MgCl2], the “effect on N4posAbl current signal / conformational states” value in data set [1] is listed as “did not trigger any noticeable change”.

As a reminder, the Kd is the concentration at which binding is half-saturated. In the case of ATP, in data set [2], the “effect on N4posG321V current trace” value was “did not trigger any change in the current trace”. The Kd on Abl kinase was 69 ± 4 µM.

B1: Abl: wildtype Abl kinase domain (residue 229-512) (protein)
chain: SPNYDKWEMERTDITMKHKLGGGQYGEVYEGVWKKYSLTVAVKTLKEDTMEVEEFLKEAAVMKEIKHPNLVQLLGVCTREPPFYIITEFMTYGNLLDYLRECNRQEVNAVVLLYMATQISSAMEYLEKKNFIHRDLAARNCLVGENHLVKVADFGLSRLMTGDTYTAHAGAKFPIKWTAPESLAYNKFSIKSDVWAFGVLLWEIATYGMSPYPGIDLSQVYELLEKDYRMERPEGCPEKVYELMRACWQWNPSDRPSFAEIHQAFETMFQESSISDEVEKELGK
The term kcat denotes the maximal rate divided by the concentration of active sites. A word on the Vmax: it is the rate approached at saturating substrate. Consider B1, for which the kcat is 7.1 ± 0.7 s⁻¹ in data set [3] and 7.112 ± 0.717 s⁻¹ in data set [4]. Further, the Vmax in data set [4] was 12.8 ± 1.3 µM/min.

B2: N4posAbl: Abl kinase domain with positively charged peptide tail KRKKSGG at its N-terminus (protein)
chain: SPNYDKWEMERTDITMKHKLGGGQYGEVYEGVWKKYSLTVAVKTLKEDTMEVEEFLKEAAVMKEIKHPNLVQLLGVCTREPPFYIITEFMTYGNLLDYLRECNRQEVNAVVLLYMATQISSAMEYLEKKNFIHRDLAARNCLVGENHLVKVADFGLSRLMTGDTYTAHAGAKFPIKWTAPESLAYNKFSIKSDVWAFGVLLWEIATYGMSPYPGIDLSQVYELLEKDYRMERPEGCPEKVYELMRACWQWNPSDRPSFAEIHQAFETMFQESSISDEVEKELGK
Regarding B2, in data set [5] (N4posAbl, pore #1, single S1 dwell events), the τS1 worked out at 443.75 ms. In data set [5] (N4posAbl, pore #3, single S1 dwell events), the τS1 is on record as 1114.75 ms. The τS2 in data set [5] (N4posAbl, pore #3, single S2 dwell events) is on record as 3255.5 ms. In data set [4], the Vmax was determined as 13.3 ± 1.1 µM/min, the catalytic constant (kcat) is 7.395 ± 0.585 s⁻¹ and the catalytic activity result is “no influence on the catalytic activity”.

B3: N4posG321V: N4posAbl hinge mutant G321V intended to enhance rigidity; catalytically inactive (protein)
chain: SPNYDKWEMERTDITMKHKLGGGQYGEVYEGVWKKYSLTVAVKTLKEDTMEVEEFLKEAAVMKEIKHPNLVQLLGVCTREPPFYIITEFMTYVNLLDYLRECNRQEVNAVVLLYMATQISSAMEYLEKKNFIHRDLAARNCLVGENHLVKVADFGLSRLMTGDTYTAHAGAKFPIKWTAPESLAYNKFSIKSDVWAFGVLLWEIATYGMSPYPGIDLSQVYELLEKDYRMERPEGCPEKVYELMRACWQWNPSDRPSFAEIHQAFETMFQESSISDEVEKELGK
In the case of B3, the τS1 in data set [5] (N4posG321V, 16 pores, single S1 dwell events) is listed as 1005.56 ms. Further, the “τS1 (ms), 16 pores” value in data set [5] (N4posG321V, individual S1 dwell times, 16 pores) amounted to 214.2 ms. Besides, the catalytic activity result in data set [4] is given as “abrogated the catalytic activity”.

As for KKGEAIYAAPFA (Abl substrate peptide Abltide) [kinase substrate peptide Abltide], the Kd is 69.9 ± 13 µM in data set [6] and 257 ± 55.9 µM in data set [7].
